# In patent US20250026849A1 (ARCELLX, published 2025):
# T1: CD123 (Homo sapiens (Human), UniProt P26951 19-305, limits assumed)
# T1 construct: The CD123 construct used in the ELISA is not described; also called CD123-Signal
# T1 sequence: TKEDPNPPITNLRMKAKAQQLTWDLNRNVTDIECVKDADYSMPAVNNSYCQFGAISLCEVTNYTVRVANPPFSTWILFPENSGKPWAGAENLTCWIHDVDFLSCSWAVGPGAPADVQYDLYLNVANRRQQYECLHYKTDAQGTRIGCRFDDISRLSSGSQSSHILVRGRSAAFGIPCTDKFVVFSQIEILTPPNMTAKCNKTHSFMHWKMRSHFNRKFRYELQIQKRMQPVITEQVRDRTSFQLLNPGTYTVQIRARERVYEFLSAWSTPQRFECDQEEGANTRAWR
# Molecular target: T1, CD123
# Assay: ELISA
# Parameters: unit not given here
row,Binder,ELISA_avg
1,D domain of SEQ ID NO: 410 (designed binder) MGSWVEFWDRLWAIDYRLFALGGSEAELAAFEKEIAAFESELQAYKGKGNPEVEALRDEAAWIREELQAYRHN,3.6
2,D domain of SEQ ID NO: 417 (designed binder) MGSWDEFEERLFAIDERLWALGGSEAELAAFEKEIAAFESELQAYKGKGNPEVEALRYLAADIREELQAYRHN,5
3,D domain of SEQ ID NO: 424 (designed binder) MGSWSEFEDRLWAIDQRLFALGGSEAELAAFEKEIAAFESELQAYKGKGNPEVEWLRAYAADIRWELQAYRHN,4.2
4,D domain of SEQ ID NO: 411 (designed binder) MGSWVEFVDRLWAIDERLDALGGSEAELAAFEKEIAAFESELQAYKGKGNPEVEFLRTWAAWIREDLQAYRHN,3.2
5,D domain of SEQ ID NO: 407 (designed binder) MGSWEEFFTRLDAINERLEALGGSEAELAAFEKEIAAFESELQAYKGKGNPEVEMLRYEAAEIRHMLQAYRHN,3.9
6,D domain of SEQ ID NO: 398 (designed binder) MGSWHEFDQRLWAIEERLWALGGSEAELAAFEKEIAAFESELQAYKGKGNPEVETLRLYAALIRHDLQAYRHN,3.3
7,D domain of SEQ ID NO: 394 (designed binder) MGSWDEFEQRLIAIEERLFALGGSEAELAAFEKEIAAFESELQAYKGKGNPEVEWLREEAAVIRKYLQAYRHN,5.9
8,D domain of SEQ ID NO: 395 (designed binder) MGSWVEFDQRLGAIWDRLVALGGSEAELAAFEKEIAAFESELQAYKGKGNPEVEHLRQGAAVIRDDLQAYRHN,5.3
9,D domain of SEQ ID NO: 366 (designed binder) MGSWEEFAQRLYAIEWRLYALGGSEAELAAFEKEIAAFESELQAYKGKGNPEVEVLRYVAAQIRYHLQAYRHN,16.9
10,D domain of SEQ ID NO: 385 (designed binder) MGSWDEFGRRLYAIEWRLYALGGSEAELAAFEKEIAAFESELQAYKGKGNPEVEKLREIAAVIRSNLQAYRHN,5.8
11,D domain of SEQ ID NO: 418 (designed binder) MGSWEEFWERLDAIDTRLWALGGSEAELAAFEKEIAAFESELQAYKGKGNPEVEVLRNDAADIREPLQAYRHN,6.8
12,D domain of SEQ ID NO: 419 (designed binder) MGSWMEFWERLEAIDMRLWALGGSEAELAAFEKEIAAFESELQAYKGKGNPEVEYLRDDAAVIRDDLQAYRHN,4.2
13,D domain of SEQ ID NO: 421 (designed binder) MGSWTEFYNRLDAIDQRLWALGGSEAELAAFEKEIAAFESELQAYKGKGNPEVEMLREYAADIRTDLQAYRHN,3.3
14,D domain of SEQ ID NO: 399 (designed binder) MGSWVEFWDRLDAIEGRLWALGGSEAELAAFEKEIAAFESELQAYKGKGNPEVEDLRWLAAEIRADLQAYRHN,3.5
15,D domain of SEQ ID NO: 409 (designed binder) MGSWYEFWGRLDAIEERLWALGGSEAELAAFEKEIAAFESELQAYKGRGNPEVEMLREDAAEIRGQLQAYRHN,5.4
16,D domain of SEQ ID NO: 408 (designed binder) MGSWYEFSNRLDAIGERLWALGGSEAELAAFEKEIAAFESELQAYKGKGNPEVEILRHQAAEIRWFLQAYRHN,3.9
17,D domain of SEQ ID NO: 422 (designed binder) MGSWWEFIWRLEAIEQRLWALGGSEAELAAFEKEIAAFESELQAYKGKGNPEVEVLRSRAADIRTDLQAYRHN,4
18,D domain of SEQ ID NO: 367 (designed binder) MGSWDEFAWRLDVIFARLGALGGSEAELAAFEKEIAAFESELQAYKGKGNPEVEELRKNAAQIRDGLQAYRHN,4.6
19,D domain of SEQ ID NO: 406 (designed binder) MGSWFEFNYRLGAIEDRLWALGGSEAELAAFEKEIAAFESELQAYKGKGNPEVEMLRQIAAEIREFLQAYRHN,6.9
20,D domain of SEQ ID NO: 368 (designed binder) MGSWDEFYYRLEAIEMRLGALGGSEAELAAFEKEIAAFESELQAYKGKGNPEVEELRHYAAQIRHMLQAYRHN,7.2
21,D domain of SEQ ID NO: 369 (designed binder) MGSWEEFYDRLEAIYNRLGALGGSEAELAAFEKEIAAFESELQAYKGKGNPEVEVLREYAADIREMLQAYRHN,18.6
22,D domain of SEQ ID NO: 360 (designed binder) MGSWTEFVWRLEAIWDRLDALGGSEAELAAFEKEIAAFESELQAYKGKGNPEVEVLREDAAVIRHFLQAYRHN,3.6
23,D domain of SEQ ID NO: 420 (designed binder) MGSWLEFMWRLDAIDERLWALGGSEAELAAFEKEIAAFESELQAYKGKGNPEVELLREMAAAIRDDLQAYRHN,5.1

# The remaining lines, values ahead:
row,ELISA_avg,Binder
1,17,D domain of SEQ ID NO: 423 (designed binder) MGSWSEFYDRLWAIEERLFALGGSEAELAAFEKEIAAFESELQAYKGKGNPEVEYLRYYAAEIREELQAYRHN
2,5.6,D domain of SEQ ID NO: 427 (designed binder) MGSWWEFENRLWAIEERLEALGGSEAELAAFEKEIAAFESELQAYKGKGNPEVEMLRNYAAEIRWELQAYRHN
3,17.5,D domain of SEQ ID NO: 447 (designed binder) MGSWVEFHLRLDAIYGRLMALGGSEAELAAFEKEIAAFESELQAYKGKGNPEVENLRVWAANIRNELQAYRHN
4,24.9,D domain of SEQ ID NO: 463 (designed binder) MGSWYEFDYRLDAIYDRLAALGGSEAELAAFEKEIAAFESELQAYKGKGNPEVERLRKWAANIREELQAYRHN
5,17,D domain of SEQ ID NO: 459 (designed binder) MGSWVEFIYRLDAIYDRLEALGGSEAELAAFEKEIAAFESELQAYKGKGNPEVEVLRRYAANIRNELQAYRHN
6,15.1,D domain of SEQ ID NO: 456 (designed binder) MGSWVEFSIRLDAIYTRLVALGGSEAELAAFEKEIAAFESELQAYKGKGNPEVEMLRKGAANIRKELQAYRHN
7,13.4,D domain of SEQ ID NO: 449 (designed binder) MGSWVEFNIRLDAIYERLYALGGSEAELAAFEKEIAAFESELQAYKGKGNPEVEKLRHWAASIRRELQAYRHN
8,14.4,D domain of SEQ ID NO: 451 (designed binder) MGSWTEFNLRLDAIYDRLMALGGSEAELAAFEKEIAAFESELQAYKGKGNPEVEWLRASAAAIRVELQAYRHN
9,15.7,D domain of SEQ ID NO: 464 (designed binder) MGSWSEFYLRLDAIYDRLDALGGSEAELAAFEKEIAAFESELQAYKGKGNPEVEWLRKTAANIREELQAYRHN
10,17.7,D domain of SEQ ID NO: 454 (designed binder) MGSWNEFAWRLDAIYSRLAALGGSEAELAAFEKEIAAFESELQAYKGKGNPEVEWLRVAAANIRYELQAYRHN
11,15.6,D domain of SEQ ID NO: 450 (designed binder) MGSWHEFGVRLDAIYDRLMALGGSEAELAAFEKEIAAFESELQAYKGKGNPEVEFLRQAAANIRSELQAYRHN
12,20.8,D domain of SEQ ID NO: 460 (designed binder) MGSWIEFEVRLDAIYNRLAALGGSEAELAAFEKEIAAFESELQAYKGKGNPEVERLRRYAANIRHELQAYRHN
13,25.3,D domain of SEQ ID NO: 448 (designed binder) MGSWVEFEMRLDAIVGRLYALGGSEAELAAFEKEIAAFESELQAYKGKGNPEVEKLRRWAANIRSELQAYRHN
14,13.1,D domain of SEQ ID NO: 462 (designed binder) MGSWFEFYMRLDAIYDRLTALGGSEAELAAFEKEIAAFESELQAYKGKGNPEVERLRTFAANIRKELQAYRHN
15,13.6,D domain of SEQ ID NO: 461 (designed binder) MGSWFEFYDRLDAIYMRLIALGGSEAELAAFEKEIAAFESELQAYKGKGNPEVEVLRRYAANIRAELQAYRHN
16,16.1,D domain of SEQ ID NO: 455 (designed binder) MGSWTEFAWRLDAIYDRLLALGGSEAELAAFEKEIAAFESELQAYKGKGNPEVEWLRHVAANIRRELQAYRHN
17,16.1,D domain of SEQ ID NO: 457 (designed binder) MGSWVEFYIRLDAIYVRLMALGGSEAELAAFEKEIAAFESELQAYKGKGNPEVEKLRSYAANIRQELQAYRHN
18,9.3,D domain of SEQ ID NO: 453 (designed binder) MGSWVEFNWRLDAIYDRLVALGGSEAELAAFEKEIAAFESELQAYKGKGNPEVEWLRVSAAKIRGELQAYRHN
19,13,D domain of SEQ ID NO: 458 (designed binder) MGSWYEFSMRLDAIYDRLMALGGSEAELAAFEKEIAAFESELQAYKGKGNPEVEQLRGYAANIRNELQAYRHN
20,19.3,D domain of SEQ ID NO: 452 (designed binder) MGSWTEFNLRLDAIYGRLSALGGSEAELAAFEKEIAAFESELQAYKGKGNPEVEFLRAAAANIRVELQAYRHN
